Test results from patent US20060264363.
Positions count from the first letter of the chain named. In names and notes the source's numbering stands.

Assays:
[1] = target: T1, SHC3 (p64) with C-terminal c-Myc-tag
T1 chain: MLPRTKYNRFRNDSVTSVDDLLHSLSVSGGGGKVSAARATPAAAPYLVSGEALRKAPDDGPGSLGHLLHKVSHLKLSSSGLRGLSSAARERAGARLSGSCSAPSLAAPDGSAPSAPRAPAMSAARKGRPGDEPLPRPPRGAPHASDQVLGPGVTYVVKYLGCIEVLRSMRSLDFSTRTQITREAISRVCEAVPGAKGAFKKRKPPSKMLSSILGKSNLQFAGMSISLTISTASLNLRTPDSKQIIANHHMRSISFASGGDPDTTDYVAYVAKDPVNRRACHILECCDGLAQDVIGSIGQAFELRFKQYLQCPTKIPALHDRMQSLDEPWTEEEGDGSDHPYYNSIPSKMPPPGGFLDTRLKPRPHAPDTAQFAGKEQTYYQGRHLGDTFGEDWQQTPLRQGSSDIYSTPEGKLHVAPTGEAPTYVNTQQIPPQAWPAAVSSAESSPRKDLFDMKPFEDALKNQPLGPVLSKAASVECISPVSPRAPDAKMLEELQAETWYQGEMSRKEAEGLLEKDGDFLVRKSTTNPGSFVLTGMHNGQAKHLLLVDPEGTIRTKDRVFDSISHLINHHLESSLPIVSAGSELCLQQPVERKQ

[2] = target: T2, CREBL1 with N-terminal c-Myc-tag
T2 chain: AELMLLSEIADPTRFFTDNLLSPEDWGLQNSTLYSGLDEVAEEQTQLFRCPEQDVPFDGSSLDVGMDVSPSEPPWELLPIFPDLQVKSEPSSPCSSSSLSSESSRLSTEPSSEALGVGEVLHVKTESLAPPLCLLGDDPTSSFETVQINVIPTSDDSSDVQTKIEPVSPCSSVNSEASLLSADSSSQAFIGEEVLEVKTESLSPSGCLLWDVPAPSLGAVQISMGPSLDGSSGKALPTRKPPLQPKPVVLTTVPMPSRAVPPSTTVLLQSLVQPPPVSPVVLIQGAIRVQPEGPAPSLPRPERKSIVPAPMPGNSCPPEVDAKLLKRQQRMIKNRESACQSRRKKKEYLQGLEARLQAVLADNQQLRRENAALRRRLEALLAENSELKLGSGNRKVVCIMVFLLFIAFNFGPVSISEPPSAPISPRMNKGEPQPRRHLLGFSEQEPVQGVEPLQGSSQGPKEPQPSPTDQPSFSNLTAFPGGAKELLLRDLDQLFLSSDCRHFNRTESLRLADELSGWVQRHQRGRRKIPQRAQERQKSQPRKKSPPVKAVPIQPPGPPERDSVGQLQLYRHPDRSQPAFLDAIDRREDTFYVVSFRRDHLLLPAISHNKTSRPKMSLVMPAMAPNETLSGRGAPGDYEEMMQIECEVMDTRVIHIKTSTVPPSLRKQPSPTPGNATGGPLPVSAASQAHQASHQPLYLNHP

[3] = target: T3, biotinylated SHC3 (p52), C-terminal tagged (pcDNA3.1/V5-His)
T3 chain: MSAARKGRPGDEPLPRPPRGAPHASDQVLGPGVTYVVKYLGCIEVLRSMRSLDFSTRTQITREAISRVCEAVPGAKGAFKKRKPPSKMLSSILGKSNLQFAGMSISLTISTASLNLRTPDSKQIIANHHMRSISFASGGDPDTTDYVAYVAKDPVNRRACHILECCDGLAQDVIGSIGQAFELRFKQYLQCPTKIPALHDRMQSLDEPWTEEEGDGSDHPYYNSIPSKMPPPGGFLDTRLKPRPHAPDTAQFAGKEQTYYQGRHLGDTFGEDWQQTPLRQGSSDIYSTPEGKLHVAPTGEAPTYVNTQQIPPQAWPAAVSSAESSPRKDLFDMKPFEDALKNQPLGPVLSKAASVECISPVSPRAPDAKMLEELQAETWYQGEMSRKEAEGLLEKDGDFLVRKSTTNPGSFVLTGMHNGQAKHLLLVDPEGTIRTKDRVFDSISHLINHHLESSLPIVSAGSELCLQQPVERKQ

[4] = target: T4, SHC3 (p52) with C-terminal c-Myc-tag
T4 chain: T3 chain

[5] = target: T5, biotinylated SHC3 (p64), C-terminal tagged (pcDNA3.1/V5-His)
T5 chain: T1 chain

[6] = target: T6, ATF6 with N-terminal c-Myc-tag
T6 chain: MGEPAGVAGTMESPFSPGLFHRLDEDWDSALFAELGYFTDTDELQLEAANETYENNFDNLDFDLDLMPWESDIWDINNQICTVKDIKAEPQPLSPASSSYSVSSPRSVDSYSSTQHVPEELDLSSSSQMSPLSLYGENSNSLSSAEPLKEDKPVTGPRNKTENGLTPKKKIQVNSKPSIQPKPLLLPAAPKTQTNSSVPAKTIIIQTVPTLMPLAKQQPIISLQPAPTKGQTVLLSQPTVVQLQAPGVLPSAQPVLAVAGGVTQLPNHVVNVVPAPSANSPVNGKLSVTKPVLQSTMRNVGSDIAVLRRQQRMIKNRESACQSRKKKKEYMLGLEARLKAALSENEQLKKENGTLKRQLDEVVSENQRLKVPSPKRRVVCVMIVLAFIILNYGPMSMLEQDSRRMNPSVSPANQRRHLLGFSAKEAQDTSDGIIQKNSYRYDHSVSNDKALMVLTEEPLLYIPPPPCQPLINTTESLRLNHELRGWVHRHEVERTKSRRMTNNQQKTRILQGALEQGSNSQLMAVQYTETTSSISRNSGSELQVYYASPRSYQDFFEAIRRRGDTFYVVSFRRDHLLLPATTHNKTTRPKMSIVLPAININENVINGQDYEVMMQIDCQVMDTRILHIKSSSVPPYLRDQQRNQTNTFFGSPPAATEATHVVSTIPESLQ

[7] = target: T7, biotinylated CREBL1, N-terminal tagged (pcDNA3.1/His)
T7 chain: T2 chain

B1: mature HtrA2 with C-terminal histidine (His)-tag (protein)
chain: MAVPSPPPASPRSQYNFIADVVEKTAPAVVYIEILDRHPFLGREVPISNGSGFVVAADGLIVTNAHVVADRRRVRVRLLSGDTYEAVVTAVDPVADIATLRIQTKEPLPTLPLGRSADVRQGEFVVAMGSPFALQNTITSGIVSSAQRPARDLGLPQTNVEYIQTDAAIDFGNSGGPLVNLDGEVIGVNTMKVTAGISFAIPSDRLREFLHRGEKKNSSSGISGSQRRYIGVMMLTLSPSILAELQLREPSFPDVQHGVLIHKVILGSPAHRAGLRPGDVILAIGEQMVQNAEDVYEAVRTQSQLAVQIRRGRETLTLYVTPEVTE
[1]
  in vitro protease assay: band of SHC3 (p64) on anti-Myc Western blot: the band of SHC3 (p64) was significantly reduced after the reaction of active HtrA2 with SHC3 (p64) for four hours (4 h) or overnight (O/N)
[2]
  in vitro protease assay: band of CREBL1 on anti-Myc Western blot: the band of CREBL1 was significantly reduced after the reaction of active HtrA2 with CREBL1 for overnight (O/N)
[3]
  in vitro protease assay: degradation pattern of biotinylated SHC3 (p52) (streptavidin HRP and anti-V5 blots): remarkable reduction of the band of biotinylated SHC3 (p52) was observed, but the band that was supposed to be a degradation product of SHC3 (p52) was not detected
[4]
  in vitro protease assay: degradation of SHC3 (p52), anti-Myc Western blot: Further it was observed that SHC3 (p52) was also degraded by mature HtrA2.
[5]
  in vitro protease assay: degradation pattern of biotinylated SHC3 (p64) (streptavidin HRP and anti-V5 blots): remarkable reduction of the band of biotinylated SHC3 (p64) was observed, and further, the bands that were supposed to be a degradation products of SHC3 (p64) were detected around 70 kDa, 40 kDa, and 30 kDa
[6]
  in vitro protease assay: band of ATF6 on anti-Myc Western blot: the band of ATF6 was significantly reduced after the reaction of active HtrA2 with ATF6 for four hours (4 h) or overnight (O/N)
[7]
  in vitro protease assay: degradation pattern of biotinylated CREBL1 (streptavidin HRP and anti-Xpress blots): remarkable reduction of the band of biotinylated CREBL1 was observed, and further, the band that was supposed to be a degradation product of CREBL1 was detected around 50 kDa

B2: mature HtrA2 (S306A) with C-terminal histidine (His)-tag (protein)
chain: B1 chain with S174A
[1]
  in vitro protease assay: degradation of SHC3 (p64), anti-Myc Western blot: the degradation of CREBL1, ATF6, and SHC3 (p64) by inactive HtrA2 (mature HtrA2 (S306A)) was not observed
[2]
  in vitro protease assay: degradation of CREBL1, anti-Myc Western blot: the degradation of CREBL1, ATF6, and SHC3 (p64) by inactive HtrA2 (mature HtrA2 (S306A)) was not observed
[3]
  in vitro protease assay: degradation of biotinylated SHC3 (p52) (streptavidin HRP blot): the degradation of SHC3 (p52) by inactive HtrA2 (mature HtrA2 (S306A)) was not observed
[4]
  in vitro protease assay: degradation of SHC3 (p52), anti-Myc Western blot: the degradation of SHC3 (p52) by inactive HtrA2 (mature HtrA2 (S306A)) was not observed as well
[5]
  in vitro protease assay: degradation of biotinylated SHC3 (p64) (streptavidin HRP blot): the degradation of SHC3 (p64) by inactive HtrA2 (mature HtrA2 (S306A)) was not observed, and the bands around 70 kDa, 40 kDa and 30 kDa as above were not detected
[6]
  in vitro protease assay: degradation of ATF6, anti-Myc Western blot: the degradation of CREBL1, ATF6, and SHC3 (p64) by inactive HtrA2 (mature HtrA2 (S306A)) was not observed
[7]
  in vitro protease assay: degradation of biotinylated CREBL1 (streptavidin HRP blot): the degradation of CREBL1 by inactive HtrA2 (mature HtrA2 (S306A)) was not observed, and the band around 50 kDa as above was not detected
